Experiments:
[1] = biological target: Pks4 SAT(C117A)-KS-MAT tridomain; assay: ITC
[2] = biological target: Pks4 SAT(C117A)-KS-MAT tridomain; assay: cross-linking

| Substance | Kd [1] | stoichiometry N (ACP monomers per S0KM dimer) [2] |
| --- | --- | --- |
| PksA apo-ACP (stand-alone ACP domain of PksA) (domain or fragment) | 30 µM | – |
| Pks4 ACP loaded with a pantetheine crosslinker (crypto-ACP) (domain or fragment) | – | 2 |
| Pks4 apo-ACP (stand-alone ACP domain of Pks4) (domain or fragment) | 15 µM | – |

Source: article PMC3796367
